Measured values from patent US20230374475A1.

Tests used:
[1] = target: engineered T. gorgonarius reverse-transcriptase lacking proof reading activity (3'-5' exonuclease) (TgoRTxo) (Thermococcus gorgonarius (engineered)) (UniProt P56689); assay: cell-based or functional assay
[2] = target: T1, TgoRTxo (exonuclease-deficient engineered Tgo reverse transcriptase) (Thermococcus gorgonarius) (UniProt P56689); settings: RT efficiency without KPCNA; Mg, dNTPs; about 45% with 1 uM KPCNA
T1 sequence: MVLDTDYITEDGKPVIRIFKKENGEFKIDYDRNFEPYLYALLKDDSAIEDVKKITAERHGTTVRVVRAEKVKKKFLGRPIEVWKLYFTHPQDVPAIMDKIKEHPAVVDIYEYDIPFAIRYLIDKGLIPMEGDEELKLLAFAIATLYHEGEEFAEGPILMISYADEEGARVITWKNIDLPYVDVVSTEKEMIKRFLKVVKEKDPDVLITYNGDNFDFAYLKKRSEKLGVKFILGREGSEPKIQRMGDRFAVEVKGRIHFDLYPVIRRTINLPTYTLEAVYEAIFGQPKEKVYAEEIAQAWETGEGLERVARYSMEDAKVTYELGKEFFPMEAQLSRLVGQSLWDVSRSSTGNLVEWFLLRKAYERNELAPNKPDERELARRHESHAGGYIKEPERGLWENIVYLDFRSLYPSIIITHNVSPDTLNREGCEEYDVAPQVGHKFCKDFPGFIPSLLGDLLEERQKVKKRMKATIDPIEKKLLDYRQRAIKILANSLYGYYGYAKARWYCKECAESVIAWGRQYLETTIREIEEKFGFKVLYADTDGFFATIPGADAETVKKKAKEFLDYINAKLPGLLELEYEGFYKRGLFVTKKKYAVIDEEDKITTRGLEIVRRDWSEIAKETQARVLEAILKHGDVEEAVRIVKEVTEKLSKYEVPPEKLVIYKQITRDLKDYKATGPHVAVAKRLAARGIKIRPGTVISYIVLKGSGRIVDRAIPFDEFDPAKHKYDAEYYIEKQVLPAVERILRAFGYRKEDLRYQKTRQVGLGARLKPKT

Row | Substance | RT efficiency of TgoRTxo at 3.5 uM KPCNA compared to no KPCNA [1] [fold] | efficiency of reverse transcription (fold increase, KPCNA raised from 0 to 1 uM) [1] [fold] | reverse transcriptase efficiency of TgoRTxo in the absence of KPCNA (baseline) [1] [%] | reverse transcriptase efficiency of TgoRTxo with 1 uM KPCNA [1] [%] | activity [2] [%]
1 | T. kodakarensis proliferating cell nuclear antigen (KPCNA) (from UniProt Q5JF32 2-249) | 3 | 4 | 10 | 45 | 
2 | ~600 nt RNA template with DNA primer |  |  |  |  | 10
